{"source": "patent US20030232757A1", "binders": {"B1": {"name": "CryET74 crystal protein (Bacillus thuringiensis delta-endotoxin, approximately 13-15-kDa) (protein)", "chain": "MSAREVHIEINNKTRHTLQLEDKTKLSGGRWRTSPTNVARDTIKTFVAESHGFMTGVEGIIYFSVNGDAEISLHFDNPYIGSNKCDGSSDKPEYEVITQSGSGDKSHVTYTIQTVSLRL"}}, "molecular_target": "T1, CryET39 crystal protein (Bacillus thuringiensis delta-endotoxin, approximately 44-kDa) (Bacillus thuringiensis (strain EG5899))", "T1 sequence": "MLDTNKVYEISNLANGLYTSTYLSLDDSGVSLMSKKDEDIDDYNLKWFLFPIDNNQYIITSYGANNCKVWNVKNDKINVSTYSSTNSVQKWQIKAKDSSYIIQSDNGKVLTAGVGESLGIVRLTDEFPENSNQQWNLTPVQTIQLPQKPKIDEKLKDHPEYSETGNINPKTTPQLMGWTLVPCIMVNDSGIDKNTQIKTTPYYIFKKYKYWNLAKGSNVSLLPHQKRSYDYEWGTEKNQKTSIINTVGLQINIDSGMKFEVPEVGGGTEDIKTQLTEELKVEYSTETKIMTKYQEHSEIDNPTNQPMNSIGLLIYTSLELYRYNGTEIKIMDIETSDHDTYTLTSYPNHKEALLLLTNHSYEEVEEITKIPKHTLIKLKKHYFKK", "experiment": "cell-based or functional assay"}
{"binder": "B1", "values": [{"measurement": "Percent Control (WCRW larval mortality corrected for diluent control); 50:50 mixture EG11935 (CryET74) + EG11937 (1) (CryET39), dose 80 µg/well (percent control)", "result": 100}, {"measurement": "Percent Control (WCRW larval mortality corrected for diluent control); 50:50 mixture EG11935 (CryET74) + EG11937 (1) (CryET39), dose 160 µg/well (percent control)", "result": 100}, {"measurement": "Percent Control (WCRW larval mortality corrected for diluent control); 50:50 mixture EG11935 (CryET74) + EG11937 (2) (CryET39), dose 80 µg/well (percent control)", "result": 100}, {"measurement": "Percent Control (WCRW larval mortality corrected for diluent control); 50:50 mixture EG11935 (CryET74) + EG11937 (2) (CryET39), dose 160 µg/well (percent control)", "result": 93.3}, {"measurement": "Percent Control (WCRW larval mortality corrected for diluent control); EG11936 (CryET39 + CryET74 co-expressed), dose 80 µg/well (percent control)", "result": 100}, {"measurement": "Percent Control (WCRW larval mortality corrected for diluent control); EG11936 (CryET39 + CryET74 co-expressed), dose 160 µg/well (percent control)", "result": 100}]}
